From PMC10589346, “Structural basis for recruitment of TASL by SLC15A4 in human endolysosomal TLR signaling” (Nature Communications, 2023)
Each block holds one binder with its values, some of them ahead of it.

Key:
[1] = target: the molecule itself; assay: cryo-EM structure; apo SLC15A4 (twin Strep-tag) from HEK293F in LMNG/CHS micelles; 25 mM HEPES pH 7.4, 150 mM NaCl; monomeric and dimeric particles found, dimer solved at 2.93 Å
[2] = target: T1, human SLC15A4 with C-terminus flag-tag (co-expressed with TASL(1–20)-EGFP for cryo-EM) (human, UniProt Q8N697 1-577, N-glycosylation at N436); assay: cryo-EM structure; SLC15A4-Flag and TASL(1–20)-EGFP-twin Strep co-expressed in HEK293F, complex purified by Strep-Tactin and SEC; 25 mM HEPES pH 7.4, 150 mM NaCl, 0.003% LMNG, 0.0003% CHS; 10–15 mg/ml; 3.03 Å, no symmetry imposed; settings: both partners purified
T1 construct: human SLC15A4 (solute carrier family 15 member 4, PHT1), codon-optimized full-length cDNA, Uniprot Q8N697; pcDNA3.1 vector; residues 1–31 not visible in the map; also called PHT1; Solute carrier family 15 member 4; source: HEK293F, co-transfected with TASL(1–20)-EGFP, complex purified (Strep-Tactin, SEC) in LMNG/CHS; not shown: Flag, C-terminal, kept

[3] = target: the molecule itself; assay: cryo-EM structure; SLC15A4-ALFA tag co-expressed with ALFA nanobody in HEK293F, complex purified (Strep-Tactin, SEC) in LMNG/CHS; monomeric and dimeric particles found, monomer solved at 3.25 Å

T1 sequence (Q8N697 whole entry, the tested form may be a part): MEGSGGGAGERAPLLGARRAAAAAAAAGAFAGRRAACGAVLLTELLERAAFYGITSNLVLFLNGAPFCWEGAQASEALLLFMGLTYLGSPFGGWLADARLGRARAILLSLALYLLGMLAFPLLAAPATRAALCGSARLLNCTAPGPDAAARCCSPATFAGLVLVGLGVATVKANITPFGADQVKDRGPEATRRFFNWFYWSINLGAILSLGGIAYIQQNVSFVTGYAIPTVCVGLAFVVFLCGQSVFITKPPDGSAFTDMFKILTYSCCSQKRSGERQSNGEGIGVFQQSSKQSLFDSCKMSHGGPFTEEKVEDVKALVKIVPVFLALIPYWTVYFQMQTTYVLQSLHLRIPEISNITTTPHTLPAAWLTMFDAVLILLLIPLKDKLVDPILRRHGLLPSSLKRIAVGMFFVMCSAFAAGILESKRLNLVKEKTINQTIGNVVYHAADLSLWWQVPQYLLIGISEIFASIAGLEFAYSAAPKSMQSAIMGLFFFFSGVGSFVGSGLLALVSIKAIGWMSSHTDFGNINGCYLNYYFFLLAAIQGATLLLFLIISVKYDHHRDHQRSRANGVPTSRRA

B1: human full-length SLC15A4 with C-terminus tandem twin Strep-tag (natural protein)
chain: not shown
modifications: N-glycosylation at N436
notes: human SLC15A4 (solute carrier family 15 member 4, PHT1), codon-optimized full-length cDNA, Uniprot Q8N697; also called apo SLC15A4; C-terminal strep-tagged SLC15A4; source: HEK293F, transfected, purified (Strep-Tactin, SEC) in LMNG/CHS; also co-expressed in HEK293F with TASL(1–20&207–301)-Flag; not shown: twin Strep-tag, C-terminal, kept
- stoichiometry N [1]: 2

- stoichiometry N [2]: 1
B2: TASL(1–20)-EGFP with C-terminus twin Strep-tag (domain or fragment, human, UniProt Q9HAI6 1-20, looked up)
chain: MLSEGYLSGLEYWNDIHWSC
notes: pCAG vector; also called CXorf21; source: HEK293F, co-transfected with SLC15A4-Flag, complex purified (Strep-Tactin, SEC) in LMNG/CHS; not shown: EGFP, C-terminal, kept; twin Strep-tag, C-terminal, kept

B3: human SLC15A4 with the 253–303 residues replaced by an ALFA tag (natural protein)
chain: not shown
modifications: N-glycosylation at N436
notes: human SLC15A4, Uniprot Q8N697, from the start to residue 252; ALFA tag, put in place of residues 253–303 (loop between TM6 and TM7); human SLC15A4, Uniprot Q8N697, from residue 304 to the end; The complex was purified on Strep-Tactin by a 'similar protocol'; also called ALFA tagged SLC15A4; SLC15A4-ALFA tag; source: HEK293F, co-transfected with ALFA nanobody, complex purified (Strep-Tactin, SEC) …
- binding result [3]: binds
